Reference: the supplement of paper PMC12636428

test system: Saccharomyces cerevisiae; experiment: transcriptional activation domain activity (GFP:mCherry ratio, weighted mean of sorted bins, harmonized to initial dataset scale) (arbitrary fluorescence ratio units); higher = stronger transcriptional activation; details: beta-estradiol 1 µM; induction time 4 h
Method in brief: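 Each value is an activation activity: the read-weighted mean of bin median fluorescence, averaged across barcodes, then mapped linearly to the initial dataset scale. The tiles, fused to an estradiol-inducible synthetic transcription factor, sat at the yeast URA3 locus in GFP-reporter diploids. Cells spent 4 hours at 30 °C in SC with 1 uM beta-estradiol before sorting into 8 GFP:mCherry bins, and tiles below 50 reads were removed.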

Q: Which “transcriptional activation domain activity” value does the source give for “LLEELTQRLLQTDETPDSKVKDLSRFINMIILRFFATARRMAVFRALFNLLLH” here?
A: Its value is 50300.

Q: For “CYFLLLLHLPCYRFLFLFLLWLLGQVSHFFLLSHHLIILFWGFVILYSYYIST”, which “transcriptional activation domain activity” value is on record?
A: The value was 63000.

Q: For “RREERRGEDGHRHRRTRRYSEDEDEEGERRSRGKERGGEERREKRREERRDAG”, which “transcriptional activation domain activity” value is on record?
A: The value was 16800.

Q: “FDYMICPVHDLGIPAPLSVFLSTVLNRAVTTIPYAPYQTHLFFLSCFVSLVAP” was tested. Which “transcriptional activation domain activity” value did it give?
A: The value was 40500.

Q: Which “transcriptional activation domain activity” value does the source give for “MVFSLASLSLLCLCLISFFFYLFFFFFFYQIPSPCFALWLANFYLSCRAWLDK” here?
A: The value was 46600.

Q: For “RTSRHLTLLFWSPLLFFSILLLLPIFLPLFLRFLLLWFPILLLLPLLCFLLLW”, which “transcriptional activation domain activity” value is on record?
A: The value was 13000.

Q: “MMPRGSYLAFFLLLLFYSFLSLFTPLNFVFLFFLSPLLRLHTLFYLLYFFGLA” was tested. Which “transcriptional activation domain activity” value did it give?
A: Its value is 42100.

Q: With “MRYGHLYTWIIILKYSLVLHQVFSLYLCIIFLAIIVFLIFVYWLMLEIFLVLF” as the sequence, how does the “transcriptional activation domain activity” value read?
A: Its value is 80500.

Q: “AGAKQLAYPQKLALIQYSDHISLNILVGKGWQELNAELVCLFVILARNIFVML” was tested. Which “transcriptional activation domain activity” value did it give?
A: Its value is 45600.

Q: “STSIRWEIFYARFFIMMLFYTIVGLFLTIACFSLRYHLFIWTVFSPKLLFFFV” was tested. Which “transcriptional activation domain activity” value did it give?
A: The value was 48800.

Q: How did the “transcriptional activation domain activity” value turn out when “MDGSEANRPYHAKKPHRKSRSGCRNCKTRKVKCDESRPTCRACRLRREACAYP” was run?
A: Its value is 16600.

Q: For “TSQCSISLYHYLIMYHMTLLGVATSVLALVLVCNPAEFLISSSVRLGFIWFCI”, which “transcriptional activation domain activity” value is on record?
A: The value was 73700.

Q: For “WLAHSKKKDCDVCKHPYSFNKVYSPDMPARLPPVLLLRHLAKQLFFTVLFSIR”, which “transcriptional activation domain activity” value is on record?
A: Its value is 76900.

Q: For “RARRNSDSSIIDKAAQEKEDRRRRERRREREREEKDRDGKSSSTRKVRKPQGL”, which “transcriptional activation domain activity” value is on record?
A: Its value is 26200.

Q: For “KGEKDKENDKGEKGEGEKKGENRSRRRRGGRGRGSGDKDKEKDKDGGGGAKKA”, which “transcriptional activation domain activity” value is on record?
A: The value was 27800.

Q: With “MFLVLGWMFAHFVTVSCWPLLLWHVFFWCCLTGASEAELFIPPFIFRLPILSS” as the sequence, how does the “transcriptional activation domain activity” value read?
A: Its value is 74400.

Q: “SHTAEPSDADGEGTRATRRAKTKSKSTGKSREAGKRSNGARKGGGRADSGGKD” was tested. Which “transcriptional activation domain activity” value did it give?
A: Its value is 46800.

Q: For “MADALAENTAKLQLDEETGEMVSKGELKKRMAKRAKKAAAAKAKAEVPATTSA”, which “transcriptional activation domain activity” value is on record?
A: Its value is 20400.

Q: With “YSMPSEICIVGFSGVNTAFIVSLLVDLGFQASPIYSMYMFFLTWRFCARLVHY” as the sequence, how does the “transcriptional activation domain activity” value read?
A: The value was 66500.

Q: “MLLNMLMLWILYIFSVTTFSTFRYFIILPVPSLMDYSEFFRACMLGAFVLSPV” was tested. Which “transcriptional activation domain activity” value did it give?
A: Its value is 71000.

Q: How did the “transcriptional activation domain activity” value turn out when “MAEDSDPSADGGLPMPYSCYECRNRKLKCDRRKDGCSRCAQAGGKCHYPTSRK” was run?
A: Its value is 48800.

Q: How did the “transcriptional activation domain activity” value turn out when “AAEEKEGYEDEAEEGEDEEEDEEDPEVRRKEELRARMAKMSAGMGGMGGMGMM” was run?
A: The value was 10100.

Q: Which “transcriptional activation domain activity” value does the source give for “MERNGNVVWILFWHFHLLFFWAMEKSFDFLHSKTLSPFWFITYFLYLLILFYL” here?
A: The value was 31900.

Q: How did the “transcriptional activation domain activity” value turn out when “TPECLTKINWNVLRLSSYLSSVATSHFLELSTIIGITLIQLIWLLHPPCLLFL” was run?
A: Its value is 45400.

Q: Which “transcriptional activation domain activity” value does the source give for “NCMLRTIHLIWESNLSCTCIVNMLVLPCLHTLSITQCLYERKDKDPNPVILEA” here?
A: Its value is 59000.

Q: For “EAAAAAKRKRRKATSDSPEQARRGHVARKTAVACNFCRGRKLRCNGAKPSCSN”, which “transcriptional activation domain activity” value is on record?
A: The value was 22800.

Q: “GGVNWESTRDREAVVIRILSPIVEADGSVYICIWIHPVGIIIVHLIVELKLVH” was tested. Which “transcriptional activation domain activity” value did it give?
A: The value was 42300.

Q: “IIKSLVGCLFFVLCPIVLVHSTSCYPRILYPLSYLLFLFWVPHLLFACRVTFT” was tested. Which “transcriptional activation domain activity” value did it give?
A: The value was 56400.

Q: Which “transcriptional activation domain activity” value does the source give for “MVNNYWSYQYSLMPFLFFFFVSQFKSCSYFFFSLLFFSWLFRFLVSYFLSWKT” here?
A: The value was 71500.

Q: Which “transcriptional activation domain activity” value does the source give for “FLTAIPAVPFAGGLSFNILLLFHHSLPFAGFLAHGFYRIIFPITLFFLPIFML” here?
A: Its value is 52900.
